Experimental data as given in patent US20110076262A1 (Genentech, published 2011).
Residue numbers refer to the chain shown, from its start. Names and notes keep the numbering of the source. Like-named read-outs stand apart in the source and are kept apart here. One block for each binder: values may come before it.

Assays:
Human FGF19 [1] = target: T1, Human FGF19 (human, UniProt O95750 25-216); assay: SPR (BIAcore 2000), IgG on chip, soluble human FGF19
T1 construct: Recombinant soluble protein; also called huFGF19; Fibroblast growth factor 19
T1 sequence (O95750 25-216 limits assumed): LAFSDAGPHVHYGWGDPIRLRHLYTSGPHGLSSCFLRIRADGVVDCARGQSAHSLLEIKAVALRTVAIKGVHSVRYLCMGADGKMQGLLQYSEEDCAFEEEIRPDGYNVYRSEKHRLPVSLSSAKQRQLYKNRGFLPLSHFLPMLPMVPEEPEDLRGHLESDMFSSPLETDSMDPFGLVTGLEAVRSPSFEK

Human FGF19 [2] = target: T1, Human FGF19; assay: as above; remark: listed apart in the source
Cynomolgus FGF19 = target: T2, Cynomolgus FGF19 (cynomolgus monkey); assay: SPR (BIAcore 2000), IgG on chip, soluble cynomolgus FGF19
T2 construct: also called Cyno FGF19; cynoFGF19

Human FGF19 [3] = target: T1, Human FGF19; assay: SPR (BIAcore 2000), IgG on chip, soluble human FGF19; remark: listed apart in the source
Human FGF19 [4] = target: T1, Human FGF19; assay: Solid phase receptor binding assay: FGFR4-Fc captured on an anti-human Fc plate, FGF19 (0.25 µg/ml) incubated with titrated anti-FGF19 antibody, bound FGF19 detected with biotinylated polyclonal anti-FGF19 / streptavidin-HRP (OD 450 nm); blocked ligand-receptor pair FGF19/FGFR4
Protocol: (§1) Maxisorb 96 well plates were coated overnight at 4° C. with 50 μl of 2 μg/ml anti-human immunoglobulin Fcγ fragment specific (Jackson Immunoresearch) and used to capture 1 μg/ml FGFR-Fc chimeric proteins (R & D Systems). The non-specific binding sites were saturated with PBS/3% BSA for 1 hour and FGF19 (0.25 μg/ml) was incubated for 2 h in PBS/0.3% BSA in the presence of oligosaccharides (0.5 μg/ml; Neoparin Inc.) and the indicated anti-FGF19 antibody (0-10 μg/ml). FGF19 binding was detected using a biotinylated FGF19 specific polyclonal antibody (0.5 μg/ml; BAF969; R & D Systems) followed by streptavidin-HRP and TMB colorimetric substrate.
(§2) Humanized anti-FGF19 antibody 1A6.v1 was characterized as follows: [0531] (1) In an assay to test ability of 1A6.v1 to block binding of FGF19 to its receptor, FGFR4, 1A6.v1 was able to block FGF19 binding to its receptor at least as well as one comparator antibody—namely a chimeric antibody (which comprised the variable regions from the murine parent 1A6 antibody (variable domains depicted in FIG. 8) fused to a human Fc region). […] [0532] (2) 1A6.v1 was also tested for cross-species binding among human and primate (Cynomolgus macaque monkey). […] [0533] (3) 1A6.v1 was tested for in vitro efficacy using a colon tumor cell line (HCT116 cells). […] [0534] […]

Human FGF19 [5] = target: T1, Human FGF19; assay: solid phase receptor binding assay: antibody blocks FGF19 binding to plate-captured FGFR4-Fc
Protocol: as §1, §2

Human FGF19 [6] = target: T1, Human FGF19; assay: SPR (Biacore), 1A6-graft as IgG, soluble human FGF19; reference chimeric 1A6

Kd (Human FGF19 [1]): 0.032 nM
koff (Human FGF19 [1]): 5.4e-05 s⁻¹
kon (Human FGF19 [1]): 1.7e+06 M⁻¹ s⁻¹
Kd (Human FGF19 [2]): 0.036 nM
koff (Human FGF19 [2]): 5.3e-05 s⁻¹
kon (Human FGF19 [2]): 1.47e+06 M⁻¹ s⁻¹
Kd (Cynomolgus FGF19): 0.087 nM
koff (Cynomolgus FGF19): 6.6e-05 s⁻¹
kon (Cynomolgus FGF19): 760000 M⁻¹ s⁻¹
KD (fold weaker), against chimeric 1A6 (Human FGF19 [3]): 1 fold
Ka (fold slower), against chimeric 1A6 (Human FGF19 [3]): 1 fold
Kd (fold faster), against chimeric 1A6 (Human FGF19 [3]): 1 fold
IC50 (Human FGF19 [4]): 0.675 µg/mL
IC50 (Human FGF19 [5]): 4.5 nM
B1: chimeric anti-FGF19 antibody 1A6 (antibody, V domains shown)
VH: QVQLKQSGPGLVQPSQSLSITCTVSGFSLTTYGVHWVRQSPGKGLEWLGVIWPGGGTDYNAAFISRLSITKDNSKSQVFFKMNSLLANDTAIYFCVRKEYANLYAMDYWGQGTLLTVSA
VL: DIKMTQSPSSMYASLGERVTIPCKASQDINSFLSWFQQKPGKSPKTLIYRANRLVDGVPSRFSGSGSGQDYSLTISSLEYEDMGIYYCLQYDEFPLTFGAGTKVEIKR
notes: also called chimeric 1A6; ch1A6

Kd (Human FGF19 [2]): 2.09 nM
koff (Human FGF19 [2]): 0.000124 s⁻¹
kon (Human FGF19 [2]): 59300 M⁻¹ s⁻¹
fold reduction of binding affinity relative to chimeric 1A6 (Human FGF19 [6]): > 50 fold
KD (fold weaker), against chimeric 1A6 (Human FGF19 [3]): 58.1 fold
Ka (fold slower), against chimeric 1A6 (Human FGF19 [3]): 24.8 fold
Kd (fold faster), against chimeric 1A6 (Human FGF19 [3]): 2.3 fold
B2: 1A6-graft (direct HVR-graft of 1A6), expressed as IgG (antibody, V domains shown)
VH: EVQLVESGGGLVQPGGSLRLSCAASGFSLTTYGVHWVRQAPGKGLEWVGVIWPGGGTDYNAAFISRFTISRDNSKNTLYLQMNSLRAEDTAVYYCVRKEYANLYAMDYWGQGTLVTVSS
VL: DIQMTQSPSSLSASVGDRVTITCKASQDINSFLSWYQQKPGKAPKLLIYRANRLVDGVPSRFSGSGSGTDFTLTISSLQPEDFATYYCLQYDEFPLTFGQGTKVEIKR
notes: Tested as IgG produced in 293 cells; also called 1A6 grafted antibody; 1A6 HVR graft

KD (fold weaker), against chimeric 1A6 (Human FGF19 [3]): 6.6 fold
Ka (fold slower), against chimeric 1A6 (Human FGF19 [3]): 5 fold
Kd (fold faster), against chimeric 1A6 (Human FGF19 [3]): 1.3 fold
B3: hu1A6.H35Q (HVR-H1) (antibody, name in Kabat numbering, V domains shown)
VH: B2 VH with H35Q
VL: B2 VL

KD (fold weaker), against chimeric 1A6 (Human FGF19 [3]): 14 fold
Ka (fold slower), against chimeric 1A6 (Human FGF19 [3]): 12 fold
Kd (fold faster), against chimeric 1A6 (Human FGF19 [3]): 1.2 fold
B4: hu1A6.S34T (HVR-L1) (antibody, V domains shown)
VH: B2 VH
VL: B2 VL with S34T

KD (fold weaker), against chimeric 1A6 (Human FGF19 [3]): 10.5 fold
Ka (fold slower), against chimeric 1A6 (Human FGF19 [3]): 12.5 fold
Kd (fold faster), against chimeric 1A6 (Human FGF19 [3]): 0.9 fold
B5: hu1A6.V34A (HVR-H1) (antibody, name in Kabat numbering, V domains shown)
VH: B2 VH with V34A
VL: B2 VL

KD (fold weaker), against chimeric 1A6 (Human FGF19 [3]): 2.3 fold
Ka (fold slower), against chimeric 1A6 (Human FGF19 [3]): 2.6 fold
Kd (fold faster), against chimeric 1A6 (Human FGF19 [3]): 0.9 fold
B6: hu1A6.A100bR (HVR-H3) (antibody, name in Kabat numbering, V domains shown)
VH: B2 VH with A105R
VL: B2 VL

Kd (Human FGF19 [1]): 0.114 nM
koff (Human FGF19 [1]): 1.6e-05 s⁻¹
kon (Human FGF19 [1]): 140000 M⁻¹ s⁻¹
Kd (Cynomolgus FGF19): 0.906 nM
koff (Cynomolgus FGF19): 4.8e-05 s⁻¹
kon (Cynomolgus FGF19): 53000 M⁻¹ s⁻¹
B7: hu1A6.S34G/D56S (HVR-L1/L2) (antibody, V domains shown)
VH: B2 VH
VL: B2 VL with S34G, D56S
notes: Humanized 1A6 variant as IgG

KD (fold weaker), against chimeric 1A6 (Human FGF19 [3]): 0.9 fold
Ka (fold slower), against chimeric 1A6 (Human FGF19 [3]): 1.7 fold
Kd (fold faster), against chimeric 1A6 (Human FGF19 [3]): 0.5 fold
B8: hu1A6.A100bP/M100kS (HVR-H3) (antibody, name in Kabat numbering, V domains shown)
VH: B2 VH with A105P, M106S
VL: B2 VL
notes: also called A100bP/M100cS

KD (fold weaker), against chimeric 1A6 (Human FGF19 [3]): 5.7 fold
Ka (fold slower), against chimeric 1A6 (Human FGF19 [3]): 6.3 fold
Kd (fold faster), against chimeric 1A6 (Human FGF19 [3]): 0.9 fold
B9: hu1A6.V50L (HVR-H2) (antibody, name in Kabat numbering, V domains shown)
VH: B2 VH with V50L
VL: B2 VL

KD (fold weaker), against chimeric 1A6 (Human FGF19 [3]): 16 fold
Ka (fold slower), against chimeric 1A6 (Human FGF19 [3]): 10.4 fold
Kd (fold faster), against chimeric 1A6 (Human FGF19 [3]): 1.5 fold
B10: hu1A6.Q90S (HVR-L3) (antibody, V domains shown)
VH: B2 VH
VL: B2 VL with Q90S

KD (fold weaker), against chimeric 1A6 (Human FGF19 [3]): 9.1 fold
Ka (fold slower), against chimeric 1A6 (Human FGF19 [3]): 7.7 fold
Kd (fold faster), against chimeric 1A6 (Human FGF19 [3]): 1.2 fold
B11: hu1A6.S34A (HVR-L1) (antibody, V domains shown)
VH: B2 VH
VL: B2 VL with S34A

Kd (Human FGF19 [1]): 0.118 nM
koff (Human FGF19 [1]): 4.6e-05 s⁻¹
kon (Human FGF19 [1]): 390000 M⁻¹ s⁻¹
Kd (Cynomolgus FGF19): 0.481 nM
koff (Cynomolgus FGF19): 7.7e-05 s⁻¹
kon (Cynomolgus FGF19): 160000 M⁻¹ s⁻¹
B12: hu1A6.S34A/D56S (HVR-L1/L2) (antibody, V domains shown)
VH: B2 VH
VL: B2 VL with S34A, D56S
notes: Humanized 1A6 variant as IgG
